The text below walks through data of patent US20190077860A1 (EISAI R AND D MANAGEMENT, published 2019).

Experiment [1] concerns the target T1, human EphA4 extracellular region-SEAP-His protein (human, UniProt P54764 20-547).
T1 construct: also called hEphA4-SEAP-His
Kind of experiment: competition ELISA, competitor human Ephrin B3-Fc. As to the method:
Antibody A obtained in Example 1 was evaluated for its inhibitory activity against the binding between human EphA4 and its human ligand according to the following steps. Each well of a 96-well plate (Nunc) was coated with an anti-alkaline phosphatase antibody (Thermo Fisher Scientific). After incubation overnight at 4° C., each well was blocked with 1% BlockAce (DS Pharma Biomedical) at room temperature for 1 hour. After washing with 0.05% Tween 20/PBS (Thermo Fisher Scientific) three times, the human EphA4 extracellular region-SEAP-His protein obtained by the method of Example 1 was added (final concentration: 10 nM) to each well and incubated at room temperature for 1 hour. After washing three times, ligands and serially diluted antibody A (0, 0.003, 0.01, 0.03, 0.1, 0.3, 1, 3, 10, 30, 100, 300, 1000, and 3000 nM) or an EphA4 inhibitor KYL peptide ([…], 0, 0.003, 0.01, 0.03, 0.1, 0.3, 1, 3, 10, 30, 100, 300, 1000, and 3000 μM, its synthesis was outsourced to Toray Research Center) were added to each well. The ligands used were biotinylated human Ephrin A5-Fc chimera (R&D Systems, final concentration: 0.7 nM) and biotinylated human Ephrin B3-Fc chimera (R&D Systems, final concentration: 2.3 nM). […] The absorbance at 450 nm was read using a microplate reader (Molecular Devices or PerkinElmer). […]
(In an ELISA, binding on a coated surface is turned into a signal by an enzyme label.)

In experiment [2] the target is T2, mouse EphA4 extracellular region-SEAP-His protein (mouse). Kind of experiment: competition ELISA, competitor mouse Ephrin A1-Fc. As for the experimental part:
Antibody A obtained in Example 1 was evaluated for its inhibitory activity against the binding between mouse EphA4 and its mouse ligand according to the following steps. Each well of a 96-well plate (Nunc) was coated with an anti-alkaline phosphatase antibody (Thermo Fisher Scientific). After incubation overnight at 4° C., each well was blocked with 1% BlockAce (DS Pharma Biomedical) at room temperature for 1 hour. After washing with 0.05% Tween 20/PBS (Thermo Fisher Scientific) three times, the mouse EphA4 extracellular region-SEAP-His protein obtained by the method of Example 1 was added (final concentration: 10 nM) to each well and incubated at room temperature for 1 hour. After washing three times, ligands and serially diluted antibody A (0, 0.001, 0.003, 0.01, 0.03, 0.1, 0.3, 1,3, 10, 30, 100, 300, and 1000 nM) or a known EphA4 inhibitor KYL peptide ([…], 0, 0.003, 0.01, 0.03, 0.1, 0.3, 1, 3, 10, 30, and 100 μM, its synthesis was outsourced to Hokkaido System Science) or compound 1 (0, 0.03, 0.1, 0.3, 1,3, 10, 30, 100, 300, and 1000 μM, Formula 1, Matrix Scientific) were added to each well. The ligands used were mouse Ephrin A1-Fc chimera (R&D Systems, final concentration: 20 nM) and mouse Ephrin B2-Fc chimera (R&D Systems, final concentration: 0.6 nM). […] The absorbance at 450 nm was read using a microplate reader (Molecular Devices).

Experiment [3] addresses T1, human EphA4 extracellular …. Kind of experiment: SPR (Biacore A100), antibody A captured on a rat anti-mouse IgG1 CM5 chip, human EphA4 extracellular region-SEAP-His as analyte at 0.8-50 nM, 1:1 fit. As for the experimental part: (§1) The binding affinity of antibody A obtained in Example 1 for mouse and human EphA4 was determined by surface plasmon resonance (SPR) using Biacore A100 (GE Healthcare). First, a rat anti-mouse IgG₁ antibody produced with a conventional procedure by immunizing rat with a mouse IgG₁ antibody was immobilized on sensor chip CM5. The immobilization of the rat anti-mouse IgG1 antibody on sensor chip CM5 was performed by the amine coupling method using N-hydroxysuccinimide (NHS) and N-ethyl-N′-(3-dimethylaminopropyl)carbodiimide hydrochloride (EDC). Ethanolamine was used in blocking (the sensor chip and the reagents for immobilization were all manufactured by GE Healthcare). The antibody was diluted with a buffer solution for immobilization (10 mM sodium acetate, pH 4.5) into 1 to 2 μg/mL and immobilized on the sensor chip according to the protocol attached to Biacore A100. Antibody A was diluted with a running buffer solution HBS-EP (GE Healthcare, BR-1001-88), injected onto a flow cell for 120 seconds, and captured (amount of the antibody captured: approximately 70 to 100 RU). Subsequently, mouse or human EphA4 extracellular region-SEAP-His serially diluted in the range of 50, 25, 12.5, 6.3, 3.1, 1.6, 0.8, and 0 nM using HBS-EP was added to the sensor chip for 120 seconds. […]
A general note: In SPR one partner is held on a chip, and binding of the other changes the refractive index at the surface.

Experiment [4] shares this target. Kind of experiment: SPR (Biacore A100), antibody captured, EphA4-SEAP-His analyte. As for the experimental part: as §1
For experiment [5], the target named is T2, mouse EphA4 extracellular …. Kind of experiment: SPR (Biacore A100), antibody A captured on a rat anti-mouse IgG1 CM5 chip, mouse EphA4 extracellular region-SEAP-His as analyte at 0.8-50 nM, 1:1 fit. As for the experimental part: as §1

A word on the IC50: it is the concentration needed to halve the response being measured. A high value points to weaker potency. The term koff denotes the first-order rate constant of dissociation. A lower koff goes with slow dissociation. By kon is commonly meant a measure of how fast the partners come together. A high value points to fast association. Usually Kd stands for a measure of binding affinity in units of concentration. High values mean lower affinity, low ones higher affinity.

T1 sequence (P54764 20-547): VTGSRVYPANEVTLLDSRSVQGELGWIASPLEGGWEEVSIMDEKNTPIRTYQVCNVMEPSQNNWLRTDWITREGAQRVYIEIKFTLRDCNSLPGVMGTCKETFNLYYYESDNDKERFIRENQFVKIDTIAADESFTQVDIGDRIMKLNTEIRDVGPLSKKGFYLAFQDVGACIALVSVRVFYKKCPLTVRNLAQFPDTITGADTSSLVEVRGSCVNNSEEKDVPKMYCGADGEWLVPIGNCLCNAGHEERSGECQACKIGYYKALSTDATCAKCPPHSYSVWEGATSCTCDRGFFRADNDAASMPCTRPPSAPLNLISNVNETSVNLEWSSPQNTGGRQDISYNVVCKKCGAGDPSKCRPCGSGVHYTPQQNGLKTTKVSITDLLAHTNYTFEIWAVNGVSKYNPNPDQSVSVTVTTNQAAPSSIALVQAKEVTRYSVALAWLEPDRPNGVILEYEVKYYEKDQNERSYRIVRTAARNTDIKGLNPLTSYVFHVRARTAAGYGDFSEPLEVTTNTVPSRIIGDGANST
T2 sequence (chain, as listed by the source limits assumed): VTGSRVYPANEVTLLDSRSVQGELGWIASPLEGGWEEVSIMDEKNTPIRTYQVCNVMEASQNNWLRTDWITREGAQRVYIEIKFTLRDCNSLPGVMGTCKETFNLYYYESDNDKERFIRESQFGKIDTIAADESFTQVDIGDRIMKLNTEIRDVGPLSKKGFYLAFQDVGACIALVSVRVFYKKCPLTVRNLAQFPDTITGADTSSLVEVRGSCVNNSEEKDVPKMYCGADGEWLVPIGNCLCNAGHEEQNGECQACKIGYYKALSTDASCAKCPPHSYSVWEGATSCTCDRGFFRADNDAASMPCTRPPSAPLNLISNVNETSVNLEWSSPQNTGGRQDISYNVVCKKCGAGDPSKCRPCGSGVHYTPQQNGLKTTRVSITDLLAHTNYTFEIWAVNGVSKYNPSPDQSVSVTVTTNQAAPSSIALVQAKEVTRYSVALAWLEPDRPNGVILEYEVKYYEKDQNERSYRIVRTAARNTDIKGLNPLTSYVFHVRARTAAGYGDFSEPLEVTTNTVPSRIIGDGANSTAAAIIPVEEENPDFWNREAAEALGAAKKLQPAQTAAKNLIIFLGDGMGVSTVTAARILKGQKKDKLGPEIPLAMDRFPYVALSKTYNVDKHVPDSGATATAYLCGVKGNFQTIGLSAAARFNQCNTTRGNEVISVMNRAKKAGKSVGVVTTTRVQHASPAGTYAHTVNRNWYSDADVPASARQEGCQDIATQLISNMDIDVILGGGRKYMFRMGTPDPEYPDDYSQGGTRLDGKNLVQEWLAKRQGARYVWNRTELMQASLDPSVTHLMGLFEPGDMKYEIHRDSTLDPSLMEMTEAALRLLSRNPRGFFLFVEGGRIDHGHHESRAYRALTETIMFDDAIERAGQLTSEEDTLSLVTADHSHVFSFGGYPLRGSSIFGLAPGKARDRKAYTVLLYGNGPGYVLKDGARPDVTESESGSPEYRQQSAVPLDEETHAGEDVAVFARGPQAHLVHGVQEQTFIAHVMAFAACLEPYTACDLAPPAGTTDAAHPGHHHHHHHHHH

B1: antibody A (antibody, mouse IgG1, kappa, V domains shown)
VH: QIQLVQSGPELKKPGETVKISCKASGYTFTDYSMHWVKQAPGKGLKWMGWINTETGEPTYADDFKGRFAFSLETSASTAYLQINNLKNEDTATYFCARIPLYYYGSRYWYFDVWGAGTTVTVSS
VL: DIQMTQSPASLSVSVGETVTITCRASENIYRNLAWYQQKQGKSPQLLVYAATNLADGVPSRFSGSGSGTQYSLKINSLQSEDFGSYYCQHFWGTPWTFGGGTKLEIKR
notes: mouse IgG1 heavy chain, kappa light chain; purified from hybridoma supernatant; also called anti-EphA4 monoclonal antibody; antibody A-IgG
As to B1, the IC50 was roughly 1.9 nM in experiment [1] and roughly 1.2 nM in experiment [2]. In addition, the koff in experiment [3] came out at 0.000152 s⁻¹; in experiment [5], 0.000144 s⁻¹. Further, the kon in experiment [3] worked out at 210000 M⁻¹ s⁻¹; in experiment [5], 218000 M⁻¹ s⁻¹. The molecule further returned a Kd in experiment [4] of 0.661 nM.
